The target of this assay is SARS-CoV-2 Spike protein (S protein) (SARS-CoV-2) (UniProt P0DTC2). The experiment in a line: ELISA. For orientation: An ELISA detects its analyte on a solid surface through an enzyme-linked reagent.

Sequence of recombinant fragment of human surfactant protein D (rfhSP-D) (P35247 201-375): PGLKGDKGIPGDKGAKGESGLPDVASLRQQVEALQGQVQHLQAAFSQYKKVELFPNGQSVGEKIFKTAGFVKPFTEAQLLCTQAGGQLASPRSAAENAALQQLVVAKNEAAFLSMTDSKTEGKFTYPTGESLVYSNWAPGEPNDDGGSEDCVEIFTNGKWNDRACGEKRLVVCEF

“recombinant fragment of human surfactant protein D (rfhSP-D) (from UniProt P35247 201-375) (domain or fragment)”: the percent decrease of S protein-hACE-2 binding (rfhSP-D increased 5-fold) was found to be 50%.

The record behind these values is publication doi:10.1101/2020.12.18.423415.
